Tests used:
MKK7 [1] = molecular target: T1, MKK7 (Homo sapiens, UniProt O14733); assay: FP measurements of MKK7 activity, time course (Example 7); type: biochemical; details: 100 μM P1°
T1 construct: purchased Upstate Biotech 14-366
T1 sequence (O14733 1-419): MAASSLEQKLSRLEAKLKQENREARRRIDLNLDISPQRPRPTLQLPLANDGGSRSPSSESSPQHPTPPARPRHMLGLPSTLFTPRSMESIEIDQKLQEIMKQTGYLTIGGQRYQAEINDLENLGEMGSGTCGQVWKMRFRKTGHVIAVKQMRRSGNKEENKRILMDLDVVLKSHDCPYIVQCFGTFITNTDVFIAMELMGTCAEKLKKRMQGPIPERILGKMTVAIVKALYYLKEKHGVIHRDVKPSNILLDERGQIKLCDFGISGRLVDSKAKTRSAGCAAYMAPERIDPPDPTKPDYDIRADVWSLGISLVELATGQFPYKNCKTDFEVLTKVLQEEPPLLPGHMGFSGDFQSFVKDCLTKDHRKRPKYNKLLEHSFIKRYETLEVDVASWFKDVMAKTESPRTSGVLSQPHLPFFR
Protocol: Fluorescence Polarization measurements of MKK7 activity (time course): In this experiment, the time course has been investigated at P1^∘ substrate concentrations of 100 μM. The reactions were stopped with EDTA. The following reagents have been used (the compositions of the buffers and specifications of the reagents are explained in more detail later on): […] After addition of MKK7, the enzyme reactions were performed in Nunc chambers at RT. The samples were continuously measured at different time points by Fluorescence polarization.

MKK7 [2] = molecular target: T1, MKK7; assay: FP measurements of MKK7 activity, time course, optimized conditions (Example 8); type: biochemical
Protocol: Fluorescence Polarization measurements of MKK7 activity (time course): In this experiment the assay conditions have been optimized. The reactions were stopped with EDTA. […] The following reagents have been used (explanations later on): […] The enzyme reactions were performed in Eppendorf reaction tubes at RT. Aliquots of 20 μl were withdrawn from the reactions at different time points and mixed with 10 μl STOP solution.

MKK7 [3] = molecular target: T1, MKK7; details: when max. activated; cited from earlier work

B1: MKK7: MKK7 kinase, supplier Upstate Biotech cat. no. 14-366 (protein, UniProt O14733 2-419, looked up)
Dual specificity …: AASSLEQKLSRLEAKLKQENREARRRIDLNLDISPQRPRPTLQLPLANDGGSRSPSSESSPQHPTPPARPRHMLGLPSTLFTPRSMESIEIDQKLQEIMKQTGYLTIGGQRYQAEINDLENLGEMGSGTCGQVWKMRFRKTGHVIAVKQMRRSGNKEENKRILMDLDVVLKSHDCPYIVQCFGTFITNTDVFIAMELMGTCAEKLKKRMQGPIPERILGKMTVAIVKALYYLKEKHGVIHRDVKPSNILLDERGQIKLCDFGISGRLVDSKAKTRSAGCAAYMAPERIDPPDPTKPDYDIRADVWSLGISLVELATGQFPYKNCKTDFEVLTKVLQEEPPLLPGHMGFSGDFQSFVKDCLTKDHRKRPKYNKLLEHSFIKRYETLEVDVASWFKDVMAKTESPRTSGVLSQPHLPFFR
In the case of B1, the “Fluorescence Polarization” value (MKK7 [1]; MKK7 0.005 μM, 0 h) is reported as 131.5 mP, the “Fluorescence Polarization” value (MKK7 [1]; MKK7 0.005 μM, 0.5 h) is reported as 137.4 mP and the “Fluorescence Polarization” value (MKK7 [1]; MKK7 0.005 μM, 1 h) is reported as 136.8 mP. The “Fluorescence Polarization” value (MKK7 [1]; MKK7 0.005 μM, 1.5 h) was 136.9 mP, the “Fluorescence Polarization” value (MKK7 [1]; MKK7 0.005 μM, 3 h) was 138.1 mP and the “Fluorescence Polarization” value (MKK7 [1]; MKK7 0.02 μM, 0 h) was 135.4 mP. The “Fluorescence Polarization” value (MKK7 [1]; MKK7 0.02 μM, 0.5 h) was 140.3 mP, the “Fluorescence Polarization” value (MKK7 [1]; MKK7 0.02 μM, 1 h) was 140.9 mP and the “Fluorescence Polarization” value (MKK7 [1]; MKK7 0.02 μM, 1.5 h) was 139.7 mP. The “Fluorescence Polarization” value (MKK7 [1]; MKK7 0.02 μM, 3 h) was 140.0 mP, the “Fluorescence Polarization” value (MKK7 [1]; MKK7 0.08 μM, 0 h) was 133.5 mP and the “Fluorescence Polarization” value (MKK7 [1]; MKK7 0.08 μM, 0.5 h) was 137.6 mP. For the same molecule, the “Fluorescence Polarization” value (MKK7 [1]; MKK7 0.08 μM, 1 h) was 135.8 mP, the “Fluorescence Polarization” value (MKK7 [1]; MKK7 0.08 μM, 1.5 h) was 128.4 mP and the “Fluorescence Polarization” value (MKK7 [1]; MKK7 0.08 μM, 3 h) was 115.2 mP. The “Fluorescence Polarization” value (MKK7 [1]; MKK7 0.2 μM, 0 h) was 135.3 mP, the “Fluorescence Polarization” value (MKK7 [1]; MKK7 0.2 μM, 0.5 h) was 132.1 mP and the “Fluorescence Polarization” value (MKK7 [1]; MKK7 0.2 μM, 1 h) was 121.9 mP. The “Fluorescence Polarization” value (MKK7 [1]; MKK7 0.2 μM, 1.5 h) was 113.8 mP, the “Fluorescence Polarization” value (MKK7 [1]; MKK7 0.2 μM, 3 h) was 104.7 mP and the “Fluorescence Polarization” value (MKK7 [1]; MKK7 0.5 μM, 0 h) was 135.3 mP. For the same molecule, the “Fluorescence Polarization” value (MKK7 [1]; MKK7 0.5 μM, 0.5 h) was 125.5 mP, the “Fluorescence Polarization” value (MKK7 [1]; MKK7 0.5 μM, 1 h) was 115.3 mP and the “Fluorescence Polarization” value (MKK7 [1]; MKK7 0.5 μM, 1.5 h) was 108.8 mP. For the same molecule, the “Fluorescence Polarization” value (MKK7 [1]; MKK7 0.5 μM, 3 h) was 106.6 mP, the “Fluorescence Polarization” value (MKK7 [1]; MKK7 1.0 μM, 0 h) was 135.7 mP and the “Fluorescence Polarization” value (MKK7 [1]; MKK7 1.0 μM, 0.5 h) was 119.6 mP. For the same molecule, the “Fluorescence Polarization” value (MKK7 [1]; MKK7 1.0 μM, 1 h) was 112.2 mP, the “Fluorescence Polarization” value (MKK7 [1]; MKK7 1.0 μM, 1.5 h) was 105.3 mP and the “Fluorescence Polarization” value (MKK7 [1]; MKK7 1.0 μM, 3 h) was 108.4 mP. The “Fluorescence Polarization” value (MKK7 [2]; NEB ab in STOP sol., MKK7 0.04 μM, 0 h) was 147.2 mP, the “Fluorescence Polarization” value (MKK7 [2]; NEB ab in STOP sol., MKK7 0.04 μM, 0.5 h) was 141.5 mP and the “Fluorescence Polarization” value (MKK7 [2]; NEB ab in STOP sol., MKK7 0.04 μM, 1 h) was 140.2 mP. The “Fluorescence Polarization” value (MKK7 [2]; NEB ab in STOP sol., MKK7 0.04 μM, 1.5 h) was 135.8 mP, the “Fluorescence Polarization” value (MKK7 [2]; NEB ab in STOP sol., MKK7 0.04 μM, 2 h) was 134.2 mP and the “Fluorescence Polarization” value (MKK7 [2]; NEB ab in STOP sol., MKK7 0.04 μM, 3 h) was 138.2 mP. The “Fluorescence Polarization” value (MKK7 [2]; NEB ab in STOP sol., MKK7 0.08 μM, 0 h) was 143.3 mP, the “Fluorescence Polarization” value (MKK7 [2]; NEB ab in STOP sol., MKK7 0.08 μM, 0.5 h) was 139.1 mP and the “Fluorescence Polarization” value (MKK7 [2]; NEB ab in STOP sol., MKK7 0.08 μM, 1 h) was 133.6 mP. For the same molecule, the “Fluorescence Polarization” value (MKK7 [2]; NEB ab in STOP sol., MKK7 0.08 μM, 1.5 h) was 122.1 mP, the “Fluorescence Polarization” value (MKK7 [2]; NEB ab in STOP sol., MKK7 0.08 μM, 2 h) was 115.8 mP and the “Fluorescence Polarization” value (MKK7 [2]; NEB ab in STOP sol., MKK7 0.08 μM, 3 h) was 125.0 mP. The “Fluorescence Polarization” value (MKK7 [2]; NEB ab in STOP sol., MKK7 0.2 μM, 0 h) was 148.2 mP, the “Fluorescence Polarization” value (MKK7 [2]; NEB ab in STOP sol., MKK7 0.2 μM, 0.5 h) was 130.2 mP and the “Fluorescence Polarization” value (MKK7 [2]; NEB ab in STOP sol., MKK7 0.2 μM, 1 h) was 114.0 mP. For the same molecule, the “Fluorescence Polarization” value (MKK7 [2]; NEB ab in STOP sol., MKK7 0.2 μM, 1.5 h) was 102.8 mP, the “Fluorescence Polarization” value (MKK7 [2]; NEB ab in STOP sol., MKK7 0.2 μM, 2 h) was 99.2 mP and the “Fluorescence Polarization” value (MKK7 [2]; NEB ab in STOP sol., MKK7 0.2 μM, 3 h) was 119.4 mP. The “Fluorescence Polarization” value (MKK7 [2]; NEB ab in reaction, MKK7 0.04 μM, 0 h) was 150.0 mP, the “Fluorescence Polarization” value (MKK7 [2]; NEB ab in reaction, MKK7 0.04 μM, 0.5 h) was 128.5 mP and the “Fluorescence Polarization” value (MKK7 [2]; NEB ab in reaction, MKK7 0.04 μM, 1 h) was 125.7 mP. The “Fluorescence Polarization” value (MKK7 [2]; NEB ab in reaction, MKK7 0.04 μM, 1.5 h) was 112.9 mP, the “Fluorescence Polarization” value (MKK7 [2]; NEB ab in reaction, MKK7 0.04 μM, 2 h) was 109.7 mP and the “Fluorescence Polarization” value (MKK7 [2]; NEB ab in reaction, MKK7 0.04 μM, 3 h) was 78.6 mP. The “Fluorescence Polarization” value (MKK7 [2]; NEB ab in reaction, MKK7 0.08 μM, 0 h) was 138.5 mP, the “Fluorescence Polarization” value (MKK7 [2]; NEB ab in reaction, MKK7 0.08 μM, 0.5 h) was 122.5 mP and the “Fluorescence Polarization” value (MKK7 [2]; NEB ab in reaction, MKK7 0.08 μM, 1 h) was 105.9 mP. For the same molecule, the “Fluorescence Polarization” value (MKK7 [2]; NEB ab in reaction, MKK7 0.08 μM, 1.5 h) was 86.4 mP, the “Fluorescence Polarization” value (MKK7 [2]; NEB ab in reaction, MKK7 0.08 μM, 2 h) was 84.5 mP and the “Fluorescence Polarization” value (MKK7 [2]; NEB ab in reaction, MKK7 0.08 μM, 3 h) was 65.0 mP. For the same molecule, the “Fluorescence Polarization” value (MKK7 [2]; NEB ab in reaction, MKK7 0.2 μM, 0 h) was 137.2 mP, the “Fluorescence Polarization” value (MKK7 [2]; NEB ab in reaction, MKK7 0.2 μM, 0.5 h) was 101.4 mP and the “Fluorescence Polarization” value (MKK7 [2]; NEB ab in reaction, MKK7 0.2 μM, 1 h) was 83.1 mP. The “Fluorescence Polarization” value (MKK7 [2]; NEB ab in reaction, MKK7 0.2 μM, 1.5 h) was 78.1 mP, the “Fluorescence Polarization” value (MKK7 [2]; NEB ab in reaction, MKK7 0.2 μM, 2 h) was 72.1 mP and the “Fluorescence Polarization” value (MKK7 [2]; NEB ab in reaction, MKK7 0.2 μM, 3 h) was 59.4 mP. The Specific activity (MKK7 [3]) was “Approximately 20 Units/mg”.

From US7049080B2, “Process for detecting serine/threonine kinase activity” (priority 2000, dated 2006)
